Consider one molecule from patent publication US20060148057A1, “Thioredoxin mutants and uses thereof” (priority 2002, published 2006).

For this assay, the system named is caspase 3. Nature of the assay: ASK1-induced caspase 3 activity assay in BAEC (Ac-DEVD-AMC substrate). Format: cell-based, Bovine. The conditions noted are these: co-expression with ASK1; n=4, p<0.05. On the procedure: Caspase 3 activity assay: Caspase 3 activity was measured with a Caspase 3 fluorescence kit (Sigma) according to the Manufacturer's protocol. Briefly, BAEC were harvested in Caspase 3 lysis buffer (25 mM Hepes, pH 7.4, 5 mM CHAPS, 5 mM DTT) and incubated on ice for 15-20 min followed by a centrifugation at 14,000× g for 10-15 min at 4° C. For each reaction, 5 μl (200 μg) of cell lysate was incubated with 200 μl of 16 μM Caspase 3 peptide substrate acetyl-ASP-Glu-Val-Asp-7 amido-4-methylcoumarin (Ac-DEVD-AMC) in the assay buffer (25 mM Hepes, pH 7.4, 5 mM EDTA, 0.1% CHAPS, 5 mM DTT) in the presence or absence of 100 μM Caspase 3 inhibitor (Ac-DEVD-CHO). The reaction was incubated in the dark for 1-1.5 h and fluorescence was measured in a fluorescence plate reader. The measured fluorescence was used as an arbitrary unit.
Then the effects. of Trx on ASK1-induced caspase 3 activation, a hallmark of the execution of apoptotic cell death (Green D R. Apoptotic pathways: paper wraps stone blunts scissors. Cell. 102:1-4 (2000); Hengartner MO. The biochemistry of apoptosis. Nature. 407:770-6 2000)) was examined. Caspase 3 activity was determined by an in vitro assay using peptide substrate acetyl-ASP-Glu-Val-Asp-7 amido-4-methylcounarin (Ac-DEVD-AMC). Overexpression of ASK1 in BAEC increased caspase 3 activity compared to the control cells (FIG. 6B).

B1: Trx-CS: double-mutant of C32S and C35S of Trx (protein)
chain: MVKQIESKTAFQEALDAAGDKLVVVDFSATWSGPSKMIKPFFHSLSEKYSNVIFLEVDVDDCQDVASECEVKCMPTFQFFKKGQKVGEFSGANKEKLEATINELV
modifications: left off: a dimerising Fc or GST; large carriers; small tags and cut ends
For B1, the “inhibition of ASK1-induced caspase 3 activity” value was “failed to block”.
